Reference: US20030032096A1 (US Dept. of Health and Human Services, published 2003)
Values joined by “and” are separate entries in the source; they are usually repeats but may differ in a detail not shown here. Identical values can stand only once. Like-named read-outs stand apart in the source and are kept apart here. No end group written: not given here. *: point of attachment. 125I = [125I]*

Columns and labels:
rat PTH2 receptor = rat PTH2 receptor (rat, UniProt P70555 25-546); experiment: cell-based or functional assay
[1] = molecular target: human parathyroid hormone type 2 receptor (PTH2 receptor) (human) (UniProt P49190); experiment: cell-based or functional assay
[2] = molecular target: human parathyroid hormone type 1 receptor (PTH1 receptor) (human) (UniProt Q03431); experiment: displacement of [125I][Nle8,21,Tyr34]rPTH(1-34), HEK293 membranes, 10 µM GTPγS
[3] = molecular target: human parathyroid hormone type 2 receptor (PTH2 receptor) (human) (UniProt P49190); experiment: displacement of [125I]TIP39, HEK293 membranes, centrifugation assay
[4] = molecular target: human parathyroid hormone type 2 receptor (PTH2 receptor) (human) (UniProt P49190); experiment: displacement of [125I]TIP39, HEK293 membranes, with against without GTPγS
[5] = molecular target: human parathyroid hormone type 1 receptor (PTH1 receptor) (human) (UniProt Q03431); experiment: radioligand binding to the PTH1 receptor
[6] = molecular target: human parathyroid hormone type 1 receptor (PTH1 receptor) (human) (UniProt Q03431); experiment: direct dissociation of the radioligand from the PTH1 receptor
[7] = molecular target: C-terminal hemaglutinin-tagged human PTH1 receptor (Example 11) (human) (UniProt Q03431); experiment: cell-based or functional assay
[8] = molecular target: human parathyroid hormone type 1 receptor (PTH1 receptor) (human) (UniProt Q03431); experiment: Motulsky and Mahan kinetic competition with [125I]TIP(7-39), HEK293 membranes
[9] = molecular target: human parathyroid hormone type 1 receptor (PTH1 receptor) (human) (UniProt Q03431); experiment: radioligand binding, HEK293 membranes, 10 µM GTPγS, 43 000 cpm added
[10] = molecular target: human parathyroid hormone type 2 receptor (PTH2 receptor) (human) (UniProt P49190); experiment: membrane radioligand binding, absence of GTPγS
[11] = molecular target: human parathyroid hormone type 2 receptor (PTH2 receptor) (human) (UniProt P49190); experiment: membrane radioligand binding, presence of GTPγS
[12] = molecular target: human parathyroid hormone type 2 receptor (PTH2 receptor) (human) (UniProt P49190); experiment: cell-based or functional assay; remark: listed apart in the source
[13] = molecular target: T1, human parathyroid hormone type 2 receptor (PTH2 receptor) (human, UniProt P49190 25-550); experiment: displacement of [125I]TIP39, 293PTH2 membranes, filtration assay
T1 construct: whole, on cells; also called human PTH2 receptor; hPTH2 receptor

[14] = molecular target: T2, human parathyroid hormone type 1 receptor (PTH1 receptor) (human, UniProt Q03431 27-593); experiment: radioligand displacement, 293PTH1 membranes, centrifugation assay, 10 µM GTPγS
T2 construct: whole, on cells; also called human PTH1 receptor
T2 sequence (looked up): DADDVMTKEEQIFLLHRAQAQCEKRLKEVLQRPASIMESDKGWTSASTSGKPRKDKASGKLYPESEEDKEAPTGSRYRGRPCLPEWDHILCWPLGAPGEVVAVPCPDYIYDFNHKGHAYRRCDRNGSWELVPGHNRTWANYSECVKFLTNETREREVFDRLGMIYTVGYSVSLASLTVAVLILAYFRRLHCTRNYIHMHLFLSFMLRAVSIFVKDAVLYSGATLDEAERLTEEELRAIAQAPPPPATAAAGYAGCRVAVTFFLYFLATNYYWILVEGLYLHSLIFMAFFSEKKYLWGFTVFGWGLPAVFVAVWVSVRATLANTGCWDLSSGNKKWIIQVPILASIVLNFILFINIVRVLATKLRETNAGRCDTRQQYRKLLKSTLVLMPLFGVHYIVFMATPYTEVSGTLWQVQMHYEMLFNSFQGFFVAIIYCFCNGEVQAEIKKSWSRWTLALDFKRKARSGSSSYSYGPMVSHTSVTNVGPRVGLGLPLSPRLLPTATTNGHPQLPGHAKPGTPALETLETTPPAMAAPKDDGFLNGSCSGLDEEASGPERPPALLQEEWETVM

[15] = molecular target: T2, human parathyroid hormone type 1 …; experiment: cell-based or functional assay
[16] = molecular target: T2, human parathyroid hormone type 1 …; experiment: displacement of [125I][Nle8,21,Tyr34]rPTH(1-34), 293PTH1 membranes, centrifugation assay, 10 µM GTPγS
Description: (§1) This assay measures the affinity of ligands for the free receptor, uncoupled from G-protein.
(§2) A similar assay design was used for the PTH1 and PTH2 receptor, in which radiolabeled agonist binding was displaced by the unlabeled ligands in the presence of 10 μM GTPγS. Briefly, cell membranes (45 μg), radioligand (50 000 cpm) and unlabeled ligand were incubated in a final volume of 1 ml assay buffer (20 mM HEPES, 100 mM NaCl, 1 mM EDTA, 3 mM MgSO₄ pH 7.5, supplemented with 0.3% non-fat dried milk powder, 100 μM (4-(2-aminoethyl))-benzenesulfonylflouride (AEBSF), 1 μg/ml bacitracin and 10 μM GTPγS) for two hours at 21° C. Membranes were collected at 18 000×g, the surface of the pellet gently washed and the radioactivity counted as described in Examples. […] To prevent greater than 20% of the total radioligand added from binding to the membranes, 15-20 μg of membranes from transfected cells were used, made up to 45 μg with membranes from non-transfected cells.

[17] = molecular target: T1, human parathyroid hormone type 2 …; experiment: displacement of [125I]TIP39, 293PTH2 membranes, centrifugation assay, 10 µM GTPγS
Description: as §1, §2

[18] = molecular target: T2, human parathyroid hormone type 1 …; experiment: displacement of [125I][Nle8,21,Tyr34]rPTH(1-34), 293PTH1 membranes, filtration assay
Excerpt: Under the conditions of the assay, the receptor-G-protein complex is the predominant receptor state detected.

[19] = molecular target: T2, human parathyroid hormone type 1 …; experiment: radioligand dissociation kinetics, HEK293 membranes, filtration; value held constant in the fit of FIG. G
Description: (§3) Total binding data were analyzed using Equation 3. For presentation purposes the non-specific binding has been subtracted and specific binding values expressed as pmol radioligand bound per mg of membrane protein. Data points are mean±s.e.m. of triplicate determinations. The experiment was performed three times with similar results. In most cases the error bars are enclosed within the symbol. […] Linear regression analysis was performed on pooled data to obtain estimates of kₒₙ (provided by the gradient) and koff (provided by the y intercept). […] Dissociation time course. The line is the best fit of the data to a mono-exponential function. […] Data points are the mean±s.e.m. of triplicate measurements. The experiment was performed twice with similar results. In most cases the error bars are enclosed within the symbol.
(§4) Incubations were carried out in 96-well polypropylene plates. The incubation mixture was transferred to a polyvinylidene fluoride filtration plate (MAHVN45, Millipore, Bedford, Mass.) and the membranes collected by rapid filtration using a Millipore Multiscreen vacuum manifold. […] In radioligand association experiments, radioligand and buffer were brought to 21° C. by incubation in a water bath for 15 minutes. Similarly pre-warmed membranes were then added to the wells at various time points and the assay wells harvested simultaneously.

[20] = molecular target: T2, human parathyroid hormone type 1 …; experiment: kinetically derived from association and dissociation of the radioligand, HEK293 membranes
Description: as §3, §4

[21] = molecular target: T2, human parathyroid hormone type 1 …; experiment: saturation binding, HEK293 membranes, filtration
Description: as §3, §4

[22] = molecular target: T2, human parathyroid hormone type 1 …; experiment: y intercept of kon(obs) against radioligand concentration, HEK293 membranes
Description: as §3, §4

[23] = molecular target: T2, human parathyroid hormone type 1 …; experiment: radioligand association kinetics, HEK293 membranes, filtration; value held constant in the fit of FIG. G
Description: as §3, §4

[24] = molecular target: T2, human parathyroid hormone type 1 …; experiment: dissociation time course of the radioligand, HEK293 membranes
Description: as §3, §4

[25] = molecular target: T2, human parathyroid hormone type 1 …; experiment: radioligand binding, HEK293 membranes, filtration
Description: Incubations were carried out in 96-well polypropylene plates. The incubation mixture was transferred to a polyvinylidene fluoride filtration plate (MAHVN45, Millipore, Bedford, Mass.) and the membranes collected by rapid filtration using a Millipore Multiscreen vacuum manifold. […] In radioligand association experiments, radioligand and buffer were brought to 21° C. by incubation in a water bath for 15 minutes.

[26] = molecular target: human parathyroid hormone type 1 receptor (PTH1 receptor) (human) (UniProt Q03431); experiment: cell-based or functional assay

rat PTH2 receptor, sequence (P70555 25-546): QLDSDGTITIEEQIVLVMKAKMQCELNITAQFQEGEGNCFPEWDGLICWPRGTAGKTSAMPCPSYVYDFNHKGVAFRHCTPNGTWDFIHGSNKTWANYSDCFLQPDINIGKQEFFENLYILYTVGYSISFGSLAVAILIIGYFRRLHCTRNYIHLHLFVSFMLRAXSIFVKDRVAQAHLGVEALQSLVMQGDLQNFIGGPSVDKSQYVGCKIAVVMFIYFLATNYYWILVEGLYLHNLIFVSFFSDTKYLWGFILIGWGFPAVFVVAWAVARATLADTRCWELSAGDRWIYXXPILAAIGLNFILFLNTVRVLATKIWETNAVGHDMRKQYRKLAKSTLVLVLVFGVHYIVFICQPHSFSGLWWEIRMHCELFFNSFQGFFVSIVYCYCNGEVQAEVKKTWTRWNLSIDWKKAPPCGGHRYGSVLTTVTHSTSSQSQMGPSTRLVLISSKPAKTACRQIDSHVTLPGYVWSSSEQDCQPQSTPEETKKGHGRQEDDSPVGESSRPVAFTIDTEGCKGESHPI
T1 sequence (P49190 25-550): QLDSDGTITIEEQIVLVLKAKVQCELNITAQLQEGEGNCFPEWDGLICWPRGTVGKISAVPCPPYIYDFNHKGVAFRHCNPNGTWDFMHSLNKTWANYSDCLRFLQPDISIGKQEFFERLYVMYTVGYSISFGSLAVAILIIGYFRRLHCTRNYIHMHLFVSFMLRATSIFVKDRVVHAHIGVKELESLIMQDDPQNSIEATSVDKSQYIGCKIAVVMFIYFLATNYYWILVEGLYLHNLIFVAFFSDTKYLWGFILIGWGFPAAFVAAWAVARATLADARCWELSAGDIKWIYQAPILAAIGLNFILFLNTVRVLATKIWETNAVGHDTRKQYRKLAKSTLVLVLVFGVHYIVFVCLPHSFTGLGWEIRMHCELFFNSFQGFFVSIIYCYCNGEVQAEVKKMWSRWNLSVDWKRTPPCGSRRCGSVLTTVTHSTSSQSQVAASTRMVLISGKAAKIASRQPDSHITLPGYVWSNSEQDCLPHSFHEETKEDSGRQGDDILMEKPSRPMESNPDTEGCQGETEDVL
human parathyroid hormone type 2 receptor (PTH2 receptor) (human), sequence (P49190 25-550): as above

[Nle^8,18, D-Tryp^12, Tyr^34]bPTH(7-34) amide (from UniProt P01268 38-65) (peptide)
pA2 (shift of rPTH(1-34) cAMP EC50 by 1 µM antagonist) (rat PTH2 receptor): 6.5 | pA2 as concentration (rat PTH2 receptor): 310 nM | pA2 (shift of rPTH(1-34) cAMP EC50 by 1 µM antagonist) [1]: 6.5 | pA2 as concentration [1]: 320 nM

[D-Tryp^12, Tyr^34]bPTH(7-34) amide (from UniProt P01268 38-65) (peptide)
fold difference of IC50 against TIP(7-39) [2]: 7.3 fold

hPTH(1-34) (from UniProt P01270 32-65) (peptide)
Emax, % of response of hPTH2r to 1 µM hPTH(1-34) (rat PTH2 receptor): 22% | Emax, % of response of rPTH2r to 3 µM rPTH(1-34) (rat PTH2 receptor): 43% | maximal ligand-stimulated cAMP production [1]: 4 pmol.well^-1 | maximal ligand-stimulated cAMP production (25 µl assay volume) [1]: 6 pmol.well^-1

[Nle^8,21, Tyr^34]rPTH(1-34) amide (from UniProt P04089 32-65) (peptide)
IC50 [3]: 1.1 nM | fold increase of IC50 with GTPγS [4]: 1.5 fold

[^125I][Nle^8,18, Tyr^34]bPTH(3-34) (from UniProt P01268 34-65) (peptide)
signal-to-noise ratio [5]: 6 | koff [6]: 0.00102 s⁻¹

PTHrP(1-34) (from UniProt P12272 37-70) (peptide)
Emax, % of response of hPTH2r to 1 µM hPTH(1-34) (rat PTH2 receptor): 7% | Emax, % of response of rPTH2r to 3 µM rPTH(1-34) (rat PTH2 receptor): 14% | Emax, % of response to 1 µM hPTH(1-34) [1]: 25%

[Nle^8,18, Tyr^34]bPTH(3-34) amide (from UniProt P01268 34-65) (peptide)
-logEC50 (cAMP accumulation) [1]: 8.28 | EC50 (cAMP accumulation) [1]: 5.2 nM | Emax, % of response to 1 µM hPTH(1-34) [1]: 37% | Emax, % of the maximal response to rPTH(1-34) (cAMP, COS-7 cells) [7]: 26% | koff [8]: 0.0005 s⁻¹

[Nle^8,18, Tyr^34]bPTH(1-34) (from UniProt P01268 32-65) (peptide)
-logEC50 (cAMP accumulation) (rat PTH2 receptor): 6.85 | EC50 (cAMP accumulation) (rat PTH2 receptor): 141 nM | Emax, % of response of hPTH2r to 1 µM hPTH(1-34) (rat PTH2 receptor): 5% | Emax, % of response of rPTH2r to 3 µM rPTH(1-34) (rat PTH2 receptor): 19% | -logEC50 (cAMP accumulation) [1]: 8.41 | EC50 (cAMP accumulation) [1]: 3.9 nM | Emax, % of response to 1 µM hPTH(1-34) [1]: 76%

[^125I][Nle^8,21, Tyr^34]rPTH(1-34) (from UniProt P04089 32-65) (peptide)
total binding (cpm) [9]: 4400 cpm and 4800 cpm | signal-to-noise ratio [10]: 3.5 fold | signal-to-noise ratio [11]: 2 fold

hPTH(1-84) (from UniProt P01270 32-115) (peptide)
Emax, % of response to 1 µM hPTH(1-34) [1]: 79%

B1: rPTH(1-84) (peptide, UniProt P04089 32-115, looked up)
peptide: AVSEIQLMHNLGKHLASVERMQWLRKKLQDVHNFVSLGVQMAAREGSYQRPTKKEENVLVDGNSKSLGEGDKADVDVLVKAKSQ
-logEC50 (cAMP accumulation) (rat PTH2 receptor): 7.72 | EC50 (cAMP accumulation) (rat PTH2 receptor): 19 nM | Emax, % of response of hPTH2r to 1 µM hPTH(1-34) (rat PTH2 receptor): 28% | Emax, % of response of rPTH2r to 3 µM rPTH(1-34) (rat PTH2 receptor): 97% | -logEC50 (cAMP accumulation) [12]: 9.24 | EC50 (cAMP accumulation) [12]: 0.58 nM | Emax, % of response to 1 µM hPTH(1-34) [12]: 98%

B2: TIP(2-39) (peptide)
peptide: LALADDAAFRERARLLAALERRHWLNSYMHKLLVLDAP
notes: N-terminally truncated TIP39 analogue from Biomolecules Midwest
binding result [13]: binds

DAAFRERARLLAALERRHWLNSYMHKLLVLDAP (also called bTIP(7-39)) [TIP(7-39)]
fold higher affinity than TIP39 [14]: 12 fold | fold-shift of rPTH(1-34) EC50 by 1 µM TIP(7-39), 20% human plasma [15]: 11 fold | fold-shift of rPTH(1-34) EC50 by 1 µM TIP(7-39), absence of plasma [15]: 7 fold | fold lower affinity than full-length TIP39 [13]: 70 fold | -logIC50 [16]: 8.3 | IC50 [16]: 5 nM | -logIC50 [17]: 7.01 | IC50 [17]: 98 nM | fold lower binding potency than full-length TIP39 [17]: 32 fold | fold higher affinity than TIP39 [18]: 5.6 fold

ADDAAFRERARLLAALERRHWLNSYMHKLLVLDAP [TIP(5-39)]
binding result [13]: binds

SEIQFMHNLGKHLSSMERVEWLRKKLQDVHNF (peptide, UniProt P01268 34-65, looked up) [bPTH(3-34)]
-logEC50 (cAMP accumulation) [12]: 8.05 | EC50 (cAMP accumulation) [12]: 8.9 nM | Emax, % of response to 1 µM hPTH(1-34) [12]: 38%

B3: [^125I]TIP(7-39) (peptide)
peptide: DAAFRERARLLAALERRHWLNSY(125I)MHKLLVLDAP
notes: 2000 Ci/mmol; also called radiolabeled TIP(7-39)
koff [19]: 0.00085 s⁻¹ | Kd [20]: 0.57 nM | Kd [21]: 1.3 nM | koff [22]: 0.00128 s⁻¹ | kon [23]: 1.48e+06 M⁻¹ s⁻¹ | koff [24]: 0.000833 s⁻¹ | total binding: non-specific binding ratio [25]: ~5

ALADDAAFRERARLLAALERRHWLNSYMHKLLVLDAP [TIP(3-39)]
binding result [13]: binds

AVSEIQLMHNLGKHLASVERMQWLRKKLQDVHNF (peptide, UniProt P04089 32-65, looked up, also: binding, rPTH(1-34) denotes the [Nle8,21, Tyr34] analogue) [rPTH(1-34)]
-logEC50 (cAMP accumulation) (rat PTH2 receptor): 7.09 | EC50 (cAMP accumulation) (rat PTH2 receptor): 81 nM | EC50 (cAMP) (rat PTH2 receptor): 49 nM | Emax, % of response of hPTH2r to 1 µM hPTH(1-34) (rat PTH2 receptor): 46% | Emax, % of response of rPTH2r to 3 µM rPTH(1-34) (rat PTH2 receptor): 100% | maximal ligand-stimulated cAMP production (50 µl-volume assays) (rat PTH2 receptor): 2.1 pmol.well^-1 | -logEC50 (cAMP accumulation) [12]: 9.39 | EC50 (cAMP accumulation) [12]: 0.41 nM | EC50 (cAMP production, HEK293 cells) [12]: 58000 nM | EC50 (cAMP) [12]: 0.15 nM | Emax [12]: 85% | Emax, % of response to 1 µM hPTH(1-34) [12]: 94% | EC50 (cAMP production, HEK293 cells) [26]: 0.5 nM
